Results: patent publication US7087405 (dated 2006)

T1: integrin alphavbeta3 (human, UniProt P06756)
T1 chain 1: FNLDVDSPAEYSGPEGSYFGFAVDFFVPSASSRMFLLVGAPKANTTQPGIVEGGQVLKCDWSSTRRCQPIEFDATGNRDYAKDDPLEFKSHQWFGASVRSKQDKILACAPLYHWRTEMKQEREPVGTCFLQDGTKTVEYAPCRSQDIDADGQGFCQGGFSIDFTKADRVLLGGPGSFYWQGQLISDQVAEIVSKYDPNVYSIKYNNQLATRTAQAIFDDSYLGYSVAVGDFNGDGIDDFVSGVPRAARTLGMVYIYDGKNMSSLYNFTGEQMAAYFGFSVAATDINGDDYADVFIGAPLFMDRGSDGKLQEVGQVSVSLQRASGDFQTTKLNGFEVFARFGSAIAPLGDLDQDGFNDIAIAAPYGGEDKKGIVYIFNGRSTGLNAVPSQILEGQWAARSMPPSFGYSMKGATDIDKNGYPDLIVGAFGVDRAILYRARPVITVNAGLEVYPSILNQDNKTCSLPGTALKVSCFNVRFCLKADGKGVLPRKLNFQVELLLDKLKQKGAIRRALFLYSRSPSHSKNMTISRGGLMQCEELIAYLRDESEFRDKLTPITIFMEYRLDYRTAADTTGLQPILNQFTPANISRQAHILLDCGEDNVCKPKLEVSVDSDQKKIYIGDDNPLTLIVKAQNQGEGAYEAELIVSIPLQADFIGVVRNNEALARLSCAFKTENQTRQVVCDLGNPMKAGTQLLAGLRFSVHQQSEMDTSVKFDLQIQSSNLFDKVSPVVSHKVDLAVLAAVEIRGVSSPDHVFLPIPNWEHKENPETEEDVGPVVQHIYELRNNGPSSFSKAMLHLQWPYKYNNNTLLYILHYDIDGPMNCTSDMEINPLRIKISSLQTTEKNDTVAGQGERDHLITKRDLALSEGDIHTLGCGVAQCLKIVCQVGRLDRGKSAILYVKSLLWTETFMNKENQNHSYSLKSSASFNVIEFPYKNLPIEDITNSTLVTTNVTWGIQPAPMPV
T1 chain 2: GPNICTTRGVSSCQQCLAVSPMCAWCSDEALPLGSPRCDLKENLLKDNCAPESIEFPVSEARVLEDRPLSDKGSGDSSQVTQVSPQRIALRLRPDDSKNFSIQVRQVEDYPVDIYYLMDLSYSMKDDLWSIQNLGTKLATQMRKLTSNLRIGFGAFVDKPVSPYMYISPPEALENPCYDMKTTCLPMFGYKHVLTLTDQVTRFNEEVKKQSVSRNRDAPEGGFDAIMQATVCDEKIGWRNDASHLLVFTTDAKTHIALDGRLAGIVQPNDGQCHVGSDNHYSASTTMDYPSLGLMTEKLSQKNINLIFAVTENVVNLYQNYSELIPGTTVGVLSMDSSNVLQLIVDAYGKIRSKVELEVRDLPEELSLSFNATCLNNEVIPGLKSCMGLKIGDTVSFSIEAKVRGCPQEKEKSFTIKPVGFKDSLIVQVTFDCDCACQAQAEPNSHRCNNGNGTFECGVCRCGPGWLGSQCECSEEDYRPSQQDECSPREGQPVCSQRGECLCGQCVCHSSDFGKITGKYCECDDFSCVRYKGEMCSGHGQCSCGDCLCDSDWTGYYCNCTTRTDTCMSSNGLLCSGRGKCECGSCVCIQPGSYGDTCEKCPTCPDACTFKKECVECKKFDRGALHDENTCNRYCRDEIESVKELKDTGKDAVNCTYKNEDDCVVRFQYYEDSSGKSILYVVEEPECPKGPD

T2: integrin alphavbeta5 (human, UniProt P06756)
T2 chain 1: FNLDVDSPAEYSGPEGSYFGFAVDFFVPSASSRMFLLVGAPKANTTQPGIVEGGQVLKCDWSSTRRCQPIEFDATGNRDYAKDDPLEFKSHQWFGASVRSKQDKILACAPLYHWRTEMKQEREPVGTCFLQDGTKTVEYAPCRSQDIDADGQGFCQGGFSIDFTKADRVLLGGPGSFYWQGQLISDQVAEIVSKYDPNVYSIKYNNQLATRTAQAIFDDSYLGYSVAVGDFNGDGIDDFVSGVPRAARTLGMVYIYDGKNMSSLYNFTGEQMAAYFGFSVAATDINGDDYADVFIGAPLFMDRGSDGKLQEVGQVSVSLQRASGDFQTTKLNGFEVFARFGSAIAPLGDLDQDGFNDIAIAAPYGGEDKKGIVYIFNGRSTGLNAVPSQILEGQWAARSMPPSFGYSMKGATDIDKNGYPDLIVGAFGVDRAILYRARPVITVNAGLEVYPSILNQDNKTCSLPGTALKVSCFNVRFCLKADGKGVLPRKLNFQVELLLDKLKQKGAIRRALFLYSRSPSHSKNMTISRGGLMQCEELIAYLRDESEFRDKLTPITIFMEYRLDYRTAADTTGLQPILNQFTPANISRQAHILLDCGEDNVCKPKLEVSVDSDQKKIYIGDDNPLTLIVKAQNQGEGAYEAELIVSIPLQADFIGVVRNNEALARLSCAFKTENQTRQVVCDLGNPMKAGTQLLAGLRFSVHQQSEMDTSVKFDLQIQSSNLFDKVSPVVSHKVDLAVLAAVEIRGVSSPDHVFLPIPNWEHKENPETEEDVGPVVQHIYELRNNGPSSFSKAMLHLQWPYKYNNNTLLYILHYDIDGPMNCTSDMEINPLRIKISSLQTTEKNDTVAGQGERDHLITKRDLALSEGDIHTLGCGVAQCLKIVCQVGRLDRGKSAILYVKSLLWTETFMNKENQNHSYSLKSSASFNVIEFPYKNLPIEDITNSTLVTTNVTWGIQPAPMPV
T2 chain 2: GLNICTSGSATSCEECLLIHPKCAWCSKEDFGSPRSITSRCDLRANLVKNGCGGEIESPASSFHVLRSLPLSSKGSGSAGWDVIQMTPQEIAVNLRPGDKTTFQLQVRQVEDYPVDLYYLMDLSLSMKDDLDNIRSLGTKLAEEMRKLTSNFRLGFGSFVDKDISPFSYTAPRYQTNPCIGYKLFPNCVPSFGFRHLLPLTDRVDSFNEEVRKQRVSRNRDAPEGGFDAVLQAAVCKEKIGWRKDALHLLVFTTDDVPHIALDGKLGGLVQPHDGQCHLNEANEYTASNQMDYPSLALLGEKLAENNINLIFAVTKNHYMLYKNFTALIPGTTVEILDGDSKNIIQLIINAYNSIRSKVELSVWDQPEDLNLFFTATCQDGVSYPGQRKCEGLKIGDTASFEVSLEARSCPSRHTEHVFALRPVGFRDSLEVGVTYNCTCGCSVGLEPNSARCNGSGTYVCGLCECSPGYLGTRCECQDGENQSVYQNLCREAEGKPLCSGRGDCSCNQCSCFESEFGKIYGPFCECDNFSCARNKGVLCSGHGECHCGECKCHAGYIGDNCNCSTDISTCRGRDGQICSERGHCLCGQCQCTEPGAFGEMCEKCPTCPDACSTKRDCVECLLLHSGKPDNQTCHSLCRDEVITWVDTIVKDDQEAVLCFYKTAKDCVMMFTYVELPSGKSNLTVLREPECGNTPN

B1: murine B9 (antibody, V domains shown)
VH: QVQLQQSGAELMKPGASVKISCKATGYTFSSYWIEWVKQRPGHGLEWIGEILPRSGNTNYNEKFKGKATFTAETSSNTAYMQLSSLTPEDSAVYYCSSRGVRGSMDYWGQGTSVTVSS
VL: DIQMTQTTSSLSASLGDRVTITCRSSQDISNFLNWYQQKPDGTVKLLIYYTSTLHSGVPSRFSGSGSGTDYSLTISNLEQEDIATYFCQQGNTLPWTFGGGTNLEIKR
B2: B9HL1G1 (antibody)
chain 1: QVQLVQSGAEVKKPGASVKVSCKASGYTFSSYWIEWVKQAPGQGLEWIGEILPRSGNTNYNEKFKGKATFTADTSTSTAYMELSSLRSEDTAVYYCSSRGVRGSMDYWGQGTLVTVSS
chain 2: DIQMTQSPSSLSASVGDRVTITCRSSQDISNFLNWYQQKPGKAPKLLIYYTSTLHSGVPSRFSGSGSGTDYTLTISSLQPEDFATYYCQQGNTASLDVRWRY
B3: B9HL1G4 (antibody)
chain 1: QVQLVQSGAEVKKPGASVKVSCKASGYTFSSYWIEWVKQAPGQGLEWIGEILPRSGNTNYNEKFKGKATFTADTSTSTAYMELSSLRSEDTAVYYCSSRGVRGSMDYWGQGTLVTVSS
chain 2: DIQMTQSPSSLSASVGDRVTITCRSSQDISNFLNWYQQKPGKAPKLLIYYTSTLHSGVPSRFSGSGSGTDYTLTISSLQPEDFATYYCQQGNTASLDVRWRY
B4: B9HL2G1 (antibody, V domains shown)
VH: QVQLVQSGAEVKKPGASVKVSCKASGYTFSSYWIEWVKQAPGQGLEWIGEILPRSGNTNYNEKFKGKATFTADTSTSTAYMELSSLRSEDTAVYYCSSRGVRGSMDYWGQGTLVTVSS
VL: DIQMTQSPSSLSASVGDRVTITCRSSQDISNFLNWYQQKPGKAPKLLIYYTSTLHSGVPSRFSGSGSGTDYTFTISSLQPEDIATYYCQQGNTLPWTFGGGT
B5: B9HH1G1/HL3K (antibody, V domains shown)
VH: QVQLVQSGAEVKKPGASVKVSCKASGYTFSSYWIEWVKQAPGQGLEWIGEILPRSGNTNYNEKFKGKATFTADTSTSTAYMELSSLRSEDTAVYYCSSRGVRGSMDYWGQGTLVTVSS
VL: DIQMTQSPSSLSASVGDRVTITCRSSQDISNFLNWYQQKPGKAPKLLIYYTSTLHSGVPSRFSGSGSGTDYTLTISSLQPEDFATYYCQQGNTLPWTFGGGTNVE

Legend:
integrin alphavbeta3 [1] = biological target: T1, integrin alphavbeta3; experiment: SPR, receptor immobilized, bivalent
integrin alphavbeta5 = biological target: T2, integrin alphavbeta5; experiment: SPR, receptor immobilized, bivalent
integrin alphavbeta3 [2] = biological target: T1, integrin alphavbeta3; experiment: SPR, mAb captured on Protein A

Binder	Kd (integrin alphavbeta3 [1]) [nM]	Kd (integrin alphavbeta5) [nM]	Kd (integrin alphavbeta3 [2]) [nM]
B1	0.29	0.11	
B2			8.2
B3			5.4
B4			7.1
B5			6.9
